Each block holds one binder with its values, some of them ahead of it.
Key:
Experiment in all cases: holdup assay
Set-up in all cases: key: below the threshold = too weak to quantify, mostly under pKd 3.1 to 4
APBA3_1, O96018 = target: T1, APBA3_1, O96018
T1 sequence (O96018 389-490, limits assumed, looked up): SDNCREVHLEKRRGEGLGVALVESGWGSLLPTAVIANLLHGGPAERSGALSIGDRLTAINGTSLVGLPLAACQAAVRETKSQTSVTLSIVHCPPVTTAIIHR

SNTG1, Q9NSN8 = target: T2, SNTG1, Q9NSN8
T2 sequence (Q9NSN8 52-150, limits assumed, looked up): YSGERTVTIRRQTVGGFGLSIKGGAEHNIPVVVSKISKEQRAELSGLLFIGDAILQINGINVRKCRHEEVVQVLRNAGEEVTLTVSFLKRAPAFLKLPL

DVL3, Q92997 = target: T3, DVL3, Q92997
T3 sequence (Q92997 244-331, limits assumed, looked up): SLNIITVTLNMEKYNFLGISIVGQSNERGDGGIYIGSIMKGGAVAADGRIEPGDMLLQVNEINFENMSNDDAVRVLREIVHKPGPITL

MAGI2_4, Q86UL8 = target: MAGI2_4, Q86UL8
MAGI2_4, Q86UL8, sequence (Q86UL8 772-865): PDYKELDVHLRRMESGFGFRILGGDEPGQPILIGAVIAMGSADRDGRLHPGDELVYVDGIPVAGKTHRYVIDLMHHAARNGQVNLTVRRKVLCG

MPDZ_5, O75970 = target: T4, MPDZ_5, O75970
T4 sequence (O75970 695-796, limits assumed, looked up): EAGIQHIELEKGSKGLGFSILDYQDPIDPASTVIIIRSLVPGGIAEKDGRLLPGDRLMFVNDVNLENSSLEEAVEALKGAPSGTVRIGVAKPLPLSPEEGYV

GRIP1_3, Q9Y3R0 = target: T5, GRIP1_3, Q9Y3R0
T5 sequence (Q9Y3R0 247-346, limits assumed, looked up): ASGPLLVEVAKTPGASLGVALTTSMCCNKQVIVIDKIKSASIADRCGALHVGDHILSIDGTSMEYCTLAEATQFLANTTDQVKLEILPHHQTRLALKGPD

PCLO, Q9Y6V0 = target: T6, PCLO, Q9Y6V0
T6 sequence (Q9Y6V0 4491-4600, limits assumed, looked up): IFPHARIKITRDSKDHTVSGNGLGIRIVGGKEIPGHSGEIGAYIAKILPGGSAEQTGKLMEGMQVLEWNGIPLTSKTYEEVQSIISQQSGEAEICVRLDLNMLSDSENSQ

PDZD7_3, Q9H5P4 = target: T7, PDZD7_3, Q9H5P4
T7 sequence (Q9H5P4 857-944, limits assumed, looked up): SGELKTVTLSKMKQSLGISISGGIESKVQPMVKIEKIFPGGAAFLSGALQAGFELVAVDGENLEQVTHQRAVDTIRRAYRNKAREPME

LNX2_2, Q8N448 = target: T8, LNX2_2, Q8N448
T8 sequence (Q8N448 334-432, limits assumed, looked up): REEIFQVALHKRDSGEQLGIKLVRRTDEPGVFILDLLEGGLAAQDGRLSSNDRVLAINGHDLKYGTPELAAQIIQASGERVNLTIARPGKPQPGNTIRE

MPDZ_10, O75970 = target: T9, MPDZ_10, O75970
T9 sequence (O75970 1624-1722, limits assumed, looked up): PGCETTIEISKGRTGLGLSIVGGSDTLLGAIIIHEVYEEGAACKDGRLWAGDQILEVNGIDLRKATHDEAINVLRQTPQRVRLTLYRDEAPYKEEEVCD

SHANK1, Q9Y566 = target: T10, SHANK1, Q9Y566
T10 sequence (Q9Y566 658-767, limits assumed, looked up): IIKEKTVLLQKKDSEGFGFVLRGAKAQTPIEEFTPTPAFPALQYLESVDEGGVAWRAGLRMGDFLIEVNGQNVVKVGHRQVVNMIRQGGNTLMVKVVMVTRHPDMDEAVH

LIMK2, P53671 = target: LIMK2, P53671
LIMK2, P53671, sequence (P53671 143-248): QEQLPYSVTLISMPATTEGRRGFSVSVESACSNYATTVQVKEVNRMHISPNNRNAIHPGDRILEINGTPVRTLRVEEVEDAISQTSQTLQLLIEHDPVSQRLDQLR

Inadl_3, Q8NI35 = target: Inadl_3, Q8NI35
Inadl_3, Q8NI35, sequence (Q8NI35 359-469): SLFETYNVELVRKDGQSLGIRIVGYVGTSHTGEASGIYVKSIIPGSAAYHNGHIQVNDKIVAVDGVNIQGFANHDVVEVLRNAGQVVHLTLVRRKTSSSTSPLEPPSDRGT

LNX1_1, Q8TBB1 = target: LNX1_1, Q8TBB1
LNX1_1, Q8TBB1, sequence (Q8TBB1 261-371): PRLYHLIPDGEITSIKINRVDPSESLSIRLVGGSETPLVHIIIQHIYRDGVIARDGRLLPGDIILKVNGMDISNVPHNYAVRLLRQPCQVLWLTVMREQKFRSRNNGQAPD

PARD3B_1, Q8TEW8 = target: T11, PARD3B_1, Q8TEW8
T11 sequence (Q8TEW8 196-299, limits assumed, looked up): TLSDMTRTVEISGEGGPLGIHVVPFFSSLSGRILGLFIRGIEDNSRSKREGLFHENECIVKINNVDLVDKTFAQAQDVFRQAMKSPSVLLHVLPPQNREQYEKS

DLG4_2, P78352 = target: DLG4_2, P78352
DLG4_2, P78352, sequence (P78352 155-259): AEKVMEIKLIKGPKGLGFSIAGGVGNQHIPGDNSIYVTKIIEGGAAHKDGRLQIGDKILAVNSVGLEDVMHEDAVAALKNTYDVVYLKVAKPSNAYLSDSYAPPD

PDZRN4_1, Q6ZMN7 = target: PDZRN4_1, Q6ZMN7
PDZRN4_1, Q6ZMN7, sequence (Q6ZMN7 213-318): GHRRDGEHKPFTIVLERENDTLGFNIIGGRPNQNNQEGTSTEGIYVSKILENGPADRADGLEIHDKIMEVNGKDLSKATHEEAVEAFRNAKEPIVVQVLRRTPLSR

CASK, O14936 = target: CASK, O14936
CASK, O14936, sequence (O14936 487-570): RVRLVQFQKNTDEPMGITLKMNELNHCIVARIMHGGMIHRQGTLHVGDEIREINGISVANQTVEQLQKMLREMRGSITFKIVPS

RADIL, Q96JH8 = target: T12, RADIL, Q96JH8
T12 sequence (Q96JH8 971-1071, limits assumed, looked up): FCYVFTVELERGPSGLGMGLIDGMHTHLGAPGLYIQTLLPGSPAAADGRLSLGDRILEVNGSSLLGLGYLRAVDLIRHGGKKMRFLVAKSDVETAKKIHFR

FRMPD2_3, Q68DX3 = target: FRMPD2_3, Q68DX3
FRMPD2_3, Q68DX3, sequence (Q68DX3 1073-1166): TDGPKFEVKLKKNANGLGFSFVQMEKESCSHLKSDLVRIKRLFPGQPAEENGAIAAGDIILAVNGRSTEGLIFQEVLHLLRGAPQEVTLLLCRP

MAGI1_2, Q96QZ7 = target: MAGI1_2, Q96QZ7
MAGI1_2, Q96QZ7, sequence (Q96QZ7 456-580): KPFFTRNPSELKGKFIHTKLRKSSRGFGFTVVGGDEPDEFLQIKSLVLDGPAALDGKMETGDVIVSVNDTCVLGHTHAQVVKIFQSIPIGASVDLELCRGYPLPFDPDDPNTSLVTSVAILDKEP

SNTA1, Q13424 = target: T13, SNTA1, Q13424
T13 sequence (Q13424 82-180, limits assumed, looked up): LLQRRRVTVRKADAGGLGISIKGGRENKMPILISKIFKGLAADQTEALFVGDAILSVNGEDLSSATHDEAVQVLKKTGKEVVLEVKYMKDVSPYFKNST

GRID2IP_1, A4D2P6 = target: GRID2IP_1, A4D2P6
GRID2IP_1, A4D2P6, sequence (A4D2P6 1-87): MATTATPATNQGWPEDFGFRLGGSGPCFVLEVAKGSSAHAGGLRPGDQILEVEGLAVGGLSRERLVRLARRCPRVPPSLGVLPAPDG

IL16_1, Q14005 = target: IL16_1, Q14005
IL16_1, Q14005, sequence (Q14005 210-306): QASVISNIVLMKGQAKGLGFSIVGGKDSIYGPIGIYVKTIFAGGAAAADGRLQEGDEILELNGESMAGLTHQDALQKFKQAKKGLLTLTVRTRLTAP

[1] = modified: acetyl on K at position -1 from the C-terminal residue
[2] = plain residues with an end cap or a label only (N-terminal biotin on a linker: ado-ado)

pKd (APBA3_1, O96018; [1]): below the threshold
pKd (SNTG1, Q9NSN8; [1]): 4.45
pKd (DVL3, Q92997; [1]): below the threshold
pKd (MAGI2_4, Q86UL8; [1]): 3.87
pKd (MPDZ_5, O75970; [1]): below the threshold
pKd (GRIP1_3, Q9Y3R0; [1]): below the threshold
pKd (PCLO, Q9Y6V0; [1]): below the threshold
pKd (PDZD7_3, Q9H5P4; [1]): 5.82
pKd (LNX2_2, Q8N448; [1]): 5.03
pKd (MPDZ_10, O75970; [1]): 4.18
pKd (SHANK1, Q9Y566; [1]): 4.18
pKd (LIMK2, P53671; [1]): below the threshold
pKd (Inadl_3, Q8NI35; [1]): below the threshold
pKd (LNX1_1, Q8TBB1; [1]): 3.61
pKd (PARD3B_1, Q8TEW8; [1]): below the threshold
pKd (DLG4_2, P78352; [1]): 4.58
pKd (PDZRN4_1, Q6ZMN7; [1]): below the threshold
pKd (CASK, O14936; [1]): below the threshold
pKd (RADIL, Q96JH8; [1]): 4.71
pKd (FRMPD2_3, Q68DX3; [1]): below the threshold
pKd (MAGI1_2, Q96QZ7; [1]): 3.69
pKd (SNTA1, Q13424; [1]): 4.71
pKd (GRID2IP_1, A4D2P6; [1]): below the threshold
pKd (IL16_1, Q14005; [1]): 3.84
Binder: DEDQHTQITKV [PTEN_Ac, P60484]

pKd (APBA3_1, O96018; [2]): below the threshold
pKd (SNTG1, Q9NSN8; [2]): below the threshold
pKd (DVL3, Q92997; [2]): below the threshold
pKd (MAGI2_4, Q86UL8; [2]): below the threshold
pKd (MPDZ_5, O75970; [2]): below the threshold
pKd (GRIP1_3, Q9Y3R0; [2]): below the threshold
pKd (PCLO, Q9Y6V0; [2]): below the threshold
pKd (PDZD7_3, Q9H5P4; [2]): below the threshold
pKd (LNX2_2, Q8N448; [2]): below the threshold
pKd (MPDZ_10, O75970; [2]): below the threshold
pKd (SHANK1, Q9Y566; [2]): below the threshold
pKd (LIMK2, P53671; [2]): below the threshold
pKd (Inadl_3, Q8NI35; [2]): 3.92
pKd (LNX1_1, Q8TBB1; [2]): below the threshold
pKd (PARD3B_1, Q8TEW8; [2]): 4.05
pKd (DLG4_2, P78352; [2]): below the threshold
pKd (PDZRN4_1, Q6ZMN7; [2]): below the threshold
pKd (CASK, O14936; [2]): below the threshold
pKd (RADIL, Q96JH8; [2]): below the threshold
pKd (FRMPD2_3, Q68DX3; [2]): below the threshold
pKd (MAGI1_2, Q96QZ7; [2]): below the threshold
pKd (SNTA1, Q13424; [2]): 3.9
pKd (GRID2IP_1, A4D2P6; [2]): below the threshold
pKd (IL16_1, Q14005; [2]): below the threshold
Binder: GCQGETEDVL [PTH2R, P49190]

pKd (APBA3_1, O96018; [2]): below the threshold
pKd (SNTG1, Q9NSN8; [2]): below the threshold
pKd (DVL3, Q92997; [2]): below the threshold
pKd (MAGI2_4, Q86UL8; [2]): below the threshold
pKd (MPDZ_5, O75970; [2]): below the threshold
pKd (GRIP1_3, Q9Y3R0; [2]): below the threshold
pKd (PCLO, Q9Y6V0; [2]): below the threshold
pKd (PDZD7_3, Q9H5P4; [2]): below the threshold
pKd (LNX2_2, Q8N448; [2]): below the threshold
pKd (MPDZ_10, O75970; [2]): below the threshold
pKd (SHANK1, Q9Y566; [2]): below the threshold
pKd (LIMK2, P53671; [2]): below the threshold
pKd (Inadl_3, Q8NI35; [2]): below the threshold
pKd (LNX1_1, Q8TBB1; [2]): below the threshold
pKd (PARD3B_1, Q8TEW8; [2]): below the threshold
pKd (DLG4_2, P78352; [2]): below the threshold
pKd (PDZRN4_1, Q6ZMN7; [2]): below the threshold
pKd (CASK, O14936; [2]): below the threshold
pKd (RADIL, Q96JH8; [2]): below the threshold
pKd (FRMPD2_3, Q68DX3; [2]): below the threshold
pKd (MAGI1_2, Q96QZ7; [2]): below the threshold
pKd (SNTA1, Q13424; [2]): below the threshold
pKd (GRID2IP_1, A4D2P6; [2]): below the threshold
pKd (IL16_1, Q14005; [2]): below the threshold
Binder: RALRASESGI [ADGRE5, P48960]
